From PMC3713010, “Sox2 Transcriptionally Regulates Pqbp1, an Intellectual Disability-Microcephaly Causative Gene, in Neural Stem Progenitor Cells”

Columns and labels:
Test in all cases: EMSA; 10% glycerol, 20 mM HEPES pH 7.8, 45 mM KCl, 10 mM NaCl, 1 mM EDTA, 1 mM DTT, 0.2 ug/uL BSA, 0.1% NP-40, 50 ng poly-dIdC; 20 ng each GST protein; room temperature 30 min (heterodimers 4 C); 6% PAGE 0.25x TBE
Conditions in all cases: protein: recombinant; tags: GST (N-terminal, pGEX-6P-1); label: 32P-dCTP fill-in of the 5' (dG)5 overhangs of both strands (Methods; control probes are given with GGG)
[1] = target: T1, Brn2 DNA-binding domain (BD-Brn2) (Mus musculus (B6), UniProt P31360 336-435)
T1 sequence: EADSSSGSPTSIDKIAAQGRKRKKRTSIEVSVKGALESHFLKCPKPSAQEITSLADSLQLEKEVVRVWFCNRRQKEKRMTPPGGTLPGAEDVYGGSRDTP
Procedure, shortened: (§1)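 DNA binding of transcription factor DNA-binding domains to candidate cis-elements was read from band radioactivity in the expected shift region. The GST-tagged domains came from E. coli BL21 via glutathione-sepharose; probes were annealed oligonucleotides labelled with 32P-dCTP. Each assay used 20 ng protein, 40,000–50,000 cpm probe and 50 ng poly-dIdC for 30 min at room temperature, followed by 6% polyacrylamide electrophoresis in 0.25×TBE at 4°C.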

[2] = target: T2, Oct6 DNA-binding domain (BD-Oct6) (Mus musculus (B6), UniProt P21952 317-416)
T2 sequence: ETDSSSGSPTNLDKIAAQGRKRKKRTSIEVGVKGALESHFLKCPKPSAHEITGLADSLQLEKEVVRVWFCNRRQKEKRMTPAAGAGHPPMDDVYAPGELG
Procedure, shortened: as §1

[3] = target: Pax6 DNA-binding domain (BD-Pax6) (Mus musculus (B6), UniProt P63015 190-289)
Procedure, shortened: as §1

Pax6 DNA-binding domain (BD-Pax6), sequence (P63015 190-289): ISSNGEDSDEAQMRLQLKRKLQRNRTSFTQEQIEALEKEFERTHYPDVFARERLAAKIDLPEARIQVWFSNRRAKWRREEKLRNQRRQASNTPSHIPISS

Binder | binding result [1] | binding result [2] | binding result [3]
24 (dsDNA) DNA 1: GGGGGCTTGTATCTTTGTATGTTCACAGAAAGCAAAGTAGCGTGGCCCCC DNA 2: GGGGGCCACGCTACTTTGCTTTCTGTGAACATACAAAGATACAAGCCCCC | no binding | no binding | no binding
25 (dsDNA) DNA 1: GGGGGCAGATAACTTTGTCCTTTTTGATTTTGAGTGAAGACCCCC DNA 2: GGGGGTCTTCACTCAAAATCAAAAAGGACAAAGTTATCTGCCCCC | no binding | no binding | no binding
26 (dsDNA) DNA 1: GGGGGGTGGAGGCTTTGTGTAATCAGTCTGTGTACCCCC DNA 2: GGGGGTACACAGACTGATTACACAAAGCCTCCACCCCCC | binds | binds | no binding
27 (dsDNA) DNA 1: GGGGGCACACCTGTTTGTTTTCCACTTCACAGAGGAGGCATAGGAAACTCCCCC DNA 2: GGGGGAGTTTCCTATGCCTCCTCTGTGAAGTGGAAAACAAACAGGTGTGCCCCC | no binding | no binding | no binding
28 (dsDNA) DNA 1: GGGGGAAAAAAGATTCTAATCTTTTTTGTGGTGGTGGCCCCC DNA 2: GGGGGCCACCACCACAAAAAAGATTAGAATCTTTTTTCCCCC | no binding | no binding | no binding
29 (dsDNA) DNA 1: GGGGGAAAAACTTTTTGTTATTTCATTTTTATTAGTGGCCCCC DNA 2: GGGGGCCACTAATAAAAATGAAATAACAAAAAGTTTTTCCCCC | no binding | binds | no binding
30 (dsDNA) DNA 1: GGGGGTGTCTTCTCCCTAATGATTGTTGTATGACCCCCC DNA 2: GGGGGGTCATACAACAATCATTAGGGAGAAGACACCCCC | binds | binds | no binding
31 (dsDNA) DNA 1: GGGGGTCCTCTCCTTTGTTTTGTCCTCACACCCCCAGCTGACCAGGTGCCCCC DNA 2: GGGGGCACCTGGTCAGCTGGGGGTGTGAGGACAAAACAAAGGAGAGGACCCCC | no binding | no binding | no binding
32 (dsDNA) DNA 1: GGGGGCGTTGCACACAAACCTTAATTTTCCAATCTATTCCCCC DNA 2: GGGGGAATAGATTGGAAAATTAAGGTTTGTGTGCAACGCCCCC | binds | binds | binds
33 (dsDNA) DNA 1: GGGGGATAGTACATTTGTTGTCATTAACAAATCAGTCCCCC DNA 2: GGGGGACTGATTTGTTAATGACAACAAATGTACTATCCCCC | binds | binds | binds
34 (dsDNA) DNA 1: GGGGGTTGTTCCCTTTGACTTCTTGTGACTTTAACAAATTCTAAAGCCCCC DNA 2: GGGGGCTTTAGAATTTGTTAAAGTCACAAGAAGTCAAAGGGAACAACCCCC | no binding | no binding | binds
35 (dsDNA) DNA 1: GGGGGGTTTCTCTAATTAATAGACTTCATTGTTCAAAACTATTTTACATTTGTTCCCCC DNA 2: GGGGGAACAAATGTAAAATAGTTTTGAACAATGAAGTCTATTAATTAGAGAAACCCCCC | binds | binds | binds
36 (dsDNA) DNA 1: GGGGGTGCATACATTTGTAATTCATTTAGGTGGTTTTCCCCC DNA 2: GGGGGAAAACCACCTAAATGAATTACAAATGTATGCACCCCC | binds | binds | binds
37 (dsDNA) DNA 1: GGGGGTTTCATGGTTTGTTAGCTATTCTCTTATCACCCCCC DNA 2: GGGGGGTGATAAGAGAATAGCTAACAAACCATGAAACCCCC | no binding | no binding | no binding
38 (dsDNA) DNA 1: GGGGGAGGTTTTGATGATTATGAACAAAGCTTCTGTCCCCC DNA 2: GGGGGACAGAAGCTTTGTTCATAATCATCAAAACCTCCCCC | no binding | binds | no binding
39 (dsDNA) DNA 1: GGGGGTTCAGGTTTTTGTAGGAACTTAAATTTTATGATTAGCCCCC DNA 2: GGGGGCTAATCATAAAATTTAAGTTCCTACAAAAACCTGAACCCCC | binds | binds | binds
40 (dsDNA) DNA 1: GGGGGTTTGTCATTTTGTAGTGCTAGGAATTAAACCCATGTCCCCC DNA 2: GGGGGACATGGGTTTAATTCCTAGCACTACAAAATGACAAACCCCC | binds | binds | binds
41 (dsDNA) DNA 1: GGGGGTTTGGAAAACAAAACATTAACCAAAATTTTCCCCC DNA 2: GGGGGAAAATTTTGGTTAATGTTTTGTTTTCCAAACCCCC | no binding | binds | binds
42 (dsDNA) DNA 1: GGGGGGCTTCAGCATTGTGAAATTGAATCATTGCCCCCC DNA 2: GGGGGGCAATGATTCAATTTCACAATGCTGAAGCCCCCC | no binding | no binding | binds
43 (dsDNA) DNA 1: GGGGGAGGAGTGCTTTGTAAAAATAACTTCTATGTCCCCC DNA 2: GGGGGACATAGAAGTTATTTTTACAAAGCACTCCTCCCCC | no binding | no binding | no binding
44 (dsDNA) DNA 1: GGGGGAAACCATGGGGGGTGGGCTGTAAACACAAAAAGGATTCCCCCC DNA 2: GGGGGGAATCCTTTTTGTGTTTACAGCCCACCCCCCATGGTTTCCCCC | no binding | no binding | no binding
45 (dsDNA) DNA 1: GGGGGAAATGTGCTTTATTTCACAAAATCAACAACCCCC DNA 2: GGGGGTTGTTGATTTTGTGAAATAAAGCACATTTCCCCC | no binding | binds | binds
